These results are taken from patent US5624659, “Method of treating brain tumors expressing tenascin” (Duke University, dated 1997).

The target in this assay is tenascin on the tenascin-expressing human glioma cell line U-251 MG-C3 (glutaraldehyde-fixed) (human, UniProt P24821). Kind of assay: modified Scatchard analysis, 125I-labelled antibody on glutaraldehyde-fixed U-251 MG-C3 cells. How it is done:
A modified Scatchard analysis was used to measure the binding affinity of labeled ch81C6. Serially diluted 125I-labeled antibody (200 μl, 1:2 dilution starting from 1600 ng/ml) was incubated in 48-well plates overnight at 37° C. with the antigen-positive human glioma cell line U-251 MG-C3 fixed in glutaraldehyde and the antigen-negative human osteogenic sarcoma cell line 2T. The cells were washed and solubilized with 2N NaOH, and the radioactivity was measured with a gamma counter. The data was analyzed in accordance with known techniques (Y. S. Lee et al., *Cancer Res.* 48, 559 (1988)).
The ch81C6 from high production transfectoma F9C11A5 was purified and further characterized. It was labeled with ^125I using the Iodogen method, and the percentage of immunoreactivity was determined by absorption with D-54 MG xenograft homogenate. The affinity constant was defined by Scatchard analysis using binding assay on a tenascin-expressing cell line U-251 MGC-3 as described above.

B1: chimeric 81C6 (mouse/human chimeric antibody, human IgG2, from transfectoma F9C11A5) (antibody, V domains shown)
VH: EVQLQQSGPELVKPGASVKMSCKASGYTFTSYVVHWVKQNPGQGLEWIGYINPFNDGTKYNENFKGKATLTSDRSSSTAYMELSSLTSEESAVYFCARDMGREGFAYWGQGTLVTVSA
VL: DIVMTQAAFSNPVTLGTSASISCRSSKSLLHSNGITYLYWYLQKPGQSPQLLIYQMSNLASGVPDRFSSSGSGTDFTLRISRVEAEDVGVYYCAQNLELPRTFGGGTKLEIK
Turning to B1, the Ka was determined as 1.67e+08 M⁻¹.
